From patent JP2015180231A

Molecular target: RSV融合(F)タンパク質 (RSV fusion (F) protein), on RSV-infected HEp2 cells (respiratory syncytial virus (RSV)) (UniProt P03420)
Experiment: cell-based or functional assay

Chain of UniProt P03420 (P03420 26-574): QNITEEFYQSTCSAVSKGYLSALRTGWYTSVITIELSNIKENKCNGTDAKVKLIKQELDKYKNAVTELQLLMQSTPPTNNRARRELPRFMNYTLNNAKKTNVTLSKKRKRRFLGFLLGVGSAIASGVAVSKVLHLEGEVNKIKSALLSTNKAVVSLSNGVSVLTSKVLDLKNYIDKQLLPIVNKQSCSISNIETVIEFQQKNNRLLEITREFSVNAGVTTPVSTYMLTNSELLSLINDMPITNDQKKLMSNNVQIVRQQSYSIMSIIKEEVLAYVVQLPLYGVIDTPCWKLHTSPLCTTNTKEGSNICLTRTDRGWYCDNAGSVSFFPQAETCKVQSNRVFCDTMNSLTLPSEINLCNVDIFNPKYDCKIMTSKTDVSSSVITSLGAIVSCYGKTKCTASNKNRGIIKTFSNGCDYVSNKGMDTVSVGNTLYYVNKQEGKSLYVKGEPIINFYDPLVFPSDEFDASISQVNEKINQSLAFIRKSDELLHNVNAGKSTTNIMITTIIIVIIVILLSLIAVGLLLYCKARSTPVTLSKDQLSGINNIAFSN

“抗RSV抗体D25 (anti-RSV monoclonal antibody D25)” gave an RSV-A2ウイルスに対して最大活性の半分を阻害する濃度(IC50) (microneutralisation) of 2.1 ng/mL.
